Source: patent US20250186597A1, “TARGETED IMMUNE ACTIVATION WITH IL-18 IMMUNOCYTOKINES” (BRIGHT PEAK THERAPEUTICS AG, priority 2023, published 2025)

Tests used:
human PD-1/CD279 = target: T1, human PD-1/CD279 (Homo sapiens, UniProt Q15116); test: PD-1 binding ELISA assay (Example 5); conditions: biotinylated human PD-1
T1 construct: purchased Biolegend #789406
Description: (§1) The interaction of the unmodified antibodies and corresponding IL-18 immunocytokines with relevant immune cell associated antigen are measured by ELISA assay. For these studies, Corning high-binding half-area plates (Fisher Scientific, Reinach, Switzerland) are coated overnight at 4° C. with 25 μl of unmodified antibodies corresponding IL-18 immunocytokines at […] in PBS. […] Plate surfaces are blocked with 25 μl of PBS-0.02% Tween20-1% BSA at 37° C. during 1 h. […] ELISA signal is then measured at 450 nm on an ENSPIRE® plate reader from Perkin Elmer (Schwerzenbach, Switzerland).

human PD-L1/B7-H1 = target: T2, human PD-L1/B7-H1 (Homo sapiens, UniProt Q9NZQ7); test: PD-L1 binding ELISA assay (Example 5); conditions: biotinylated human PD-L1
T2 construct: purchased ACROBiosystems PD1-H82E5-25UG
Description: as §1

[1] = target: T3, human Fc gamma receptors I (FcγRI/CD64) (Homo sapiens, UniProt P12314); test: Human FcγR binding ELISA, FcγRI/CD64 (Example 8); conditions: ELISA binding affinity
T3 construct: purchased R&D systems 1257-FC-050
Description: (§2) The interaction of the unmodified and of conjugated antibodies with human Fc gamma receptors I (FcγRI/CD64), with human Fc gamma receptors IIa (FcγRIIa/CD32a), with inhibitory human Fc gamma receptors IIb (FcγRIIb/CD32b), and with human Fc gamma receptors III FcγRIIIa/CD16 were measured by ELISA.
(§3) Briefly, Corning high-binding half-area plates (Fisher Scientific, Reinach, Switzerland) were coated overnight at 4° C. with 25 μl of unmodified and of conjugated anti-PD1 antibodies at 2.5 μg/ml in PBS. […] Plates surfaces were blocked with 25 μl of PBS-0.02% Tween20-1% BSA at 37° C. during 1 h. […] Twenty-five microliters of a 1/500 HRP-anti-His antibody in PBS—0.02% Tween20—0.1% BSA (R&D systems, anti-HIS—HRP Ab, #MAB050H) were added to each well and plates were incubated at Room Temperature during 1 h. […] ELISA signal was then measured at 450 nm on an EnSpire plate reader from Perkin Elmer (Schwerzenbach, Switzerland).

[2] = target: T4, human Fc gamma receptors IIa (FcγRIIa/CD32a) (Homo sapiens, UniProt P12318); test: Human FcγR binding ELISA, FcγRIIa/CD32a (Example 8); conditions: ELISA binding affinity
T4 construct: purchased R&D systems 9595-CD-050
T4 sequence (P12318 34-317): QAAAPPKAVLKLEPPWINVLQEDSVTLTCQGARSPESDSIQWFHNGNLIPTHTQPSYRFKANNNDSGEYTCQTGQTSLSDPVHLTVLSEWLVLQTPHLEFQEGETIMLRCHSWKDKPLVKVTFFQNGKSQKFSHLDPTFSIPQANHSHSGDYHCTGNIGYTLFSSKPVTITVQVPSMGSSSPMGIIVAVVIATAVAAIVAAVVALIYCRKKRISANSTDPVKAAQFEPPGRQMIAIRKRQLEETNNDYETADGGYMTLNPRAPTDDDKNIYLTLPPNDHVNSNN
Description: as §2, §3

[3] = target: T5, human Fc gamma receptors IIb (FcγRIIb/CD32b) (Homo sapiens, UniProt P31994); test: Human FcγR binding ELISA, FcγRIIb/CD32b (Example 8); conditions: ELISA binding affinity
T5 construct: purchased R&D systems AVI1875-050
T5 sequence (P31994 43-310): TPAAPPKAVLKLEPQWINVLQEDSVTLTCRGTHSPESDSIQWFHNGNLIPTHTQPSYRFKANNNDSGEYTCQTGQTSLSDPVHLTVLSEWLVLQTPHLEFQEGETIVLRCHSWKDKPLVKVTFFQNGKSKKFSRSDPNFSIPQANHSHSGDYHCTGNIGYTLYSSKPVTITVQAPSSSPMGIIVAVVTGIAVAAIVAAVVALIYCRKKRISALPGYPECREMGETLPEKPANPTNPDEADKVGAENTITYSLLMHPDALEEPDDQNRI
Description: as §2, §3

[4] = target: T6, human Fc gamma receptors III FcγRIIIa/CD16 (Homo sapiens, UniProt P08637); test: Human FcγR binding ELISA, FcγRIIIa/CD16 (Example 8); conditions: ELISA binding affinity
T6 construct: purchased R&D systems 4325-FC-050
Description: as §2, §3

[5] = target: T7, human neonatal Fc receptor (FcRn) (Homo sapiens, UniProt P55899); test: Human FcRn binding AlphaLISA at pH 6 (Example 9)
T7 construct: purchased Perkin Elmer AL3095C
Description: The interaction of the unmodified and of conjugated anti-PD1 antibodies with the human neonatal Fc receptor (FcRn) at pH 6 was measured using the AlphaLISA® Human FcRn Binding Kit (AL3095C) from Perkin Elmer (Schwerzenbach, Switzerland). […] When reference IgG binds to FcRn, donor and acceptor beads come into proximity enabling the transfer of singlet oxygen that trigger a cascade of energy transfer reactions in the acceptor beads, resulting in a sharp peak of light emission at 615 nm. Addition of a free IgG antibodies into the AlphaLISA® mixture creates a competition for the binding of FcRn to the reference antibody resulting in a loss of signal.
After 90 min at 23° C. in the dark, AlphaLISA® signal was measured on an EnSpire plate reader (Excitation at 680 nm, Emission at 615 nm) from Perkin Elmer (Schwerzenbach, Switzerland).

NK92 cells [6] = test: IFN gamma secretion assay in NK92 cells (Example 10); assay type: cell-based, human; conditions: IFNγ secretion, 1 ng/ml IL-12
Description: The IFNγ-secretion stimulating activity of the unconjugated IL-18 variants and corresponding IL-18 immunocytokines was evaluated on NK92 cell line. The NK cell line NK-92 derived from a patient with lymphoma (ATCC, Cat #CRL-2407) was cultured in aMEM medium supplemented with 12.5% FCS, 12.5% horse serum (HS), 50 uM B-mercaptoEthanol, and 2 ng/ml of recombinant Human Interleukin-2 (IL-2).
On the day of experiment, cells were harvested and washed with aMEM medium without IL-2 and resuspended in medium (w/o IL-2) containing 1 ng/ml of recombinant human Interleukin-12 (SinoBiologicals, Cat #CT011-H08H). After counting, cells were seeded at 100 000 cells/well in a 384 well titer plate and incubated at 37° C./5% CO2. Sixteen 4-fold serial dilutions of IL-18 analytes were prepared in aMEM medium—1 ng/ml IL-12 and were added to the NK-92 cells. […]
(§4) After 16-20 h incubation at 37° C./5% CO2, 5 μl of supernatant were carefully transferred to a 384 microwells OPTIPlate (Perkin Elmer; Cat #6007270) and Interferon-gamma (IFNγ) levels measured using the Human IFNγ AlphaLISA Assay Kit (Perkin Elmer, Cat #AL217C). […] AlphaLisa signal was then measured on an Enspire plate reader (Perkin Elmer) using 680 and 615 nm as excitation and emission wavelengths respectively. Half maximal effective concentration (EC50) was calculated based on a variable slope, four parameter analysis using GraphPad PRISM software.

[7] = system: parental PD-1 negative KG-1 cells; test: IFN gamma secretion assay in parental PD-1 negative KG-1 cells (Example 11); assay type: cell-based, human; conditions: IFNγ secretion
Description: (§5) The KG-1 cell line was used to generate a PD-1 expressing cell line and furthermore, to measure IFNγ release upon incubation with IL-18 variants and corresponding IL-18 immunocytokines.
(§6) IFNγ release was assessed in PD-1 positive (transduced) KG-1 cells, as well as in the parental PD-1 negative cells. 0.5×10^5 cells were seeded into a 96-well U-bottom plate in culture media (RPMI, 10% FBS, 1% L-Glutamine) and stimulated with IL-18 variants/ICs for 20-24 h. The test items were diluted to 100 nM in culture medium, followed by 7 10-fold serial dilutions. The lowest concentration assessed was […]. After incubation, IFNγ release was measured using the LEGENDplex custom human mix and match KIT (Biolegend LEGENDplex™ Human IFN-γ Capture Bead B5, 13X #740942, LEGENDplex™ HU Essential Immune Response Panel Detection Abs, #740931, LEGENDplex™ Buffer Set A #740368). To this end, cell culture supernatant was collected and diluted 1:1 with Assay Buffer. Fluorescence measurements were done with a Quanteon Flow Cytometer from Acea Biosciences. For analysis, MFI values (median fluorescence intensity) were exported and plotted against concentrations used. The EC50 values (half maximal effective concentration) were calculated based on a variable slope and four parameter analysis using GraphPad PRISM software version 9.

[8] = system: PD-1 positive (transduced) KG-1 cells; test: IFN gamma secretion assay in PD-1 transduced KG-1 cells (Example 11); assay type: cell-based, human
Description: as §5
PD-1 expressing cell line generation: Briefly, KG-1 cells were transduced using lentiviral particles carrying the human PD-1 gene (PDCD1 NM_005018; Origene, CAT #: RC210364L3V) at a MOI (Multiplicity of Infection) of 30. Spinfection was performed at 1260 g during 90 min at 37° C. in the presence of 5 μg/ml of Polybrene and 10 mM of HEPES in complete culture media (RPMI, 10% FBS, 1% L-Glutamine). Five days after transduction, puromycin at a final concentration of 1 ug/ml was added to select for PD-1 positive cells. For culture maintenance, puromycin concentration was decreased to 0.5 μg/ml. Stable and homogenous expression of PD-1 was verified by surface staining (BD Pharmingen, #557860).
as §6

[9] = target: T8, human IL-18 Binding Protein (IL-18BP) (Homo sapiens, UniProt O95998); test: IL-18 Binding Protein alphaLISA assay (Example 12); conditions: human IL-18BP
T8 sequence (O95998 31-194): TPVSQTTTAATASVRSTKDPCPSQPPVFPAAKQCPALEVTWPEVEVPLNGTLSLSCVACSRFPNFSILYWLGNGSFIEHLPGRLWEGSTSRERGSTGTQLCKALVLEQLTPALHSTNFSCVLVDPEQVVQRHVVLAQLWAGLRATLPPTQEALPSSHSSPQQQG
Description: Wild type or modified IL-18 polypeptides samples were diluted at 5.6 μM in a solution of 1× alphaLISA Immunoassay Buffer provided in the alphaLISA IFNγ Detection kit and were diluted applying 3-fold serial dilutions down to […] in 384 deep well plates. A solution of 10 ng/ml of human IL-18BP-His was prepared with 1×alphaLISA Immunoassay Buffer. IL-18/IL-18BP complex formation was performed incubating 30 μl of IL-18BP solution to IL-18 sample titrations for 1 h at 20° C. IL-18BP standard was prediluted from stock solution supplied in alphaLISA IFNγ Detection kit at 100 ng/ml with 1×alphaLISA Buffer and titration prepared from applying 2-fold serial dilutions. The following solutions were prepared: a 50 μg/ml solution of anti-IL-18BP alphaLISA Acceptor beads, a 5 nM solution of biotinylated anti-IL18BP antibody and a 80 μg/ml light-protected solution of Streptavidin Donor beads in 1×alphaLISA Immunoassay Buffer. […]
5 μl of Biotinylated anti-IL-18BP antibody were added, followed by a short centrifugation step at 150 g, and incubated for 60 minutes at 20° C. under shaking at 750 rpm. […] AlphaLisa signal was then measured on an Enspire plate reader (Perkin Elmer) using 680 and 615 nm as excitation and emission wavelengths respectively. […]

NK92 cells [10] = test: Cellular IL-18 Binding Protein resistance assay in NK92 cells (Example 13); assay type: cell-based, human; conditions: IL-18BP-mediated inhibition of IFNγ secretion, IL-18 analyte 1 nM
Description: The NK cell line NK-92 derived from a patient with lymphoma (ATCC, Cat #CR^L-2407) was cultured in αMEM medium supplemented with 20% FCS-Glutamax, 25 μM B-mercaptoethanol, and 100 IU/ml of recombinant Human Interleukin-2 (IL-2). On the day of experiment, cells were harvested and washed with αMEM medium without IL-2. After counting, cells were seeded at 100 000 cells/well in a 384 well titer plate and incubated at 37° C./5% CO2. Sixteen 2-fold serial dilutions of Fc fused human IL-18 binding protein isoform a (IL-18BPa; R&D systems, Cat #119-BP) were prepared in αMEM medium—1 ng/ml IL-12 containing 2 nM of each IL-18 variants and were added to the NK-92 cells. Final IL-18 analytes concentration was 1 nM and final IL-18BPa concentrations ranged from to 566 nM down to 17 pM.
as §4, with “OPTIplate” for “OPTIPlate”, “inhibitory” for “effective”, “(IC50)” for “(EC50)”

T1 sequence (Q15116 25-288): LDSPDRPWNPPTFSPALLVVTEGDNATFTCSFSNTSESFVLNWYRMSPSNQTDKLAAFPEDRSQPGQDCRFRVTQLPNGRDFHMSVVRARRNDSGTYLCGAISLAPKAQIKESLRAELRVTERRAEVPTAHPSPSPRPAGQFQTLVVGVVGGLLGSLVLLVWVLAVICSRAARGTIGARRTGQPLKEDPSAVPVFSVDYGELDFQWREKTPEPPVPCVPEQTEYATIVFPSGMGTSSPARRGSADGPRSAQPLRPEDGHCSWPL
T3 sequence (P12314 16-374): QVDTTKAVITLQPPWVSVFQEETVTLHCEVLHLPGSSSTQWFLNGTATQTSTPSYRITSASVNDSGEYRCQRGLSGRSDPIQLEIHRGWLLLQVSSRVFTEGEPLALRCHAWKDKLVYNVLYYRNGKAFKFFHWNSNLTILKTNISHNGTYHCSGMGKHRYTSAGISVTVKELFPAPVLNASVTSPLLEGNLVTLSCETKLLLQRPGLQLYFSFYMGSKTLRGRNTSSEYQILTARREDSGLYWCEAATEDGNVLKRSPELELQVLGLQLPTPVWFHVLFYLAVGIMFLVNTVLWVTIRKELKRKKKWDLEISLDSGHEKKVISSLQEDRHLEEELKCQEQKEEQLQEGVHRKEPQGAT
T2 sequence (Q9NZQ7 19-290): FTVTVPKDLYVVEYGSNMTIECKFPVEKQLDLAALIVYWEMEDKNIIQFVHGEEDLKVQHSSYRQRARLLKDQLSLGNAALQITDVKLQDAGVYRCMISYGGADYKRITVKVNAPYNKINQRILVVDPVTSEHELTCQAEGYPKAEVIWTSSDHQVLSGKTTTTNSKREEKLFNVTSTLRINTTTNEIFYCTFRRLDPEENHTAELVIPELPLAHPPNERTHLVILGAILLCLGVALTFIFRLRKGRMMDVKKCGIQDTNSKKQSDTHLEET
T7 sequence (P55899 24-297 limits assumed): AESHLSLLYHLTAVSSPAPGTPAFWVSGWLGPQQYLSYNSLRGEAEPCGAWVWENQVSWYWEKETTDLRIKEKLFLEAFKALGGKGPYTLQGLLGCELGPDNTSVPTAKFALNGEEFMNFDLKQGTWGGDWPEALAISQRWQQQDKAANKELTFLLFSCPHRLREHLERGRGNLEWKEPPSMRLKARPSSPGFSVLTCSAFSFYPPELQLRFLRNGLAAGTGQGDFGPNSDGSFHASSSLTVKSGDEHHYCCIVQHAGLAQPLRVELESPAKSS
T7 sequence (P61769 21-119 partner): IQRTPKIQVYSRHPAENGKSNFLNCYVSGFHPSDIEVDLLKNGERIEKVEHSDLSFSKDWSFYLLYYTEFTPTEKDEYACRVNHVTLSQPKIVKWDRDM
T6 sequence (P08637 17-254): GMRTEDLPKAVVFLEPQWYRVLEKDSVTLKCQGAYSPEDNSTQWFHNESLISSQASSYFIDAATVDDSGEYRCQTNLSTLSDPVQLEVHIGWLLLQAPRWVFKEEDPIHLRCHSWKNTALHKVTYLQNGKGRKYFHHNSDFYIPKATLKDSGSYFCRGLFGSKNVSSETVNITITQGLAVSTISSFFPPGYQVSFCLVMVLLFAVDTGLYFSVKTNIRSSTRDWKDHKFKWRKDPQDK

Substance: Atezolizumab/Tecentriq
- Kd (human PD-1/CD279): > 100 nM
- Kd (human PD-L1/B7-H1): 0.443 nM
- Kd [1]: 9.17 nM
- Kd [2]: 1370 nM
- Kd [3]: > 10000 nM
- Kd [4]: 356 nM
- Kd [5]: 6.4 nM

Substance: SEQ ID NO: 31: IL-18 polypeptide: C38A, C76A, C127A
- EC50 (NK92 cells [6]): 0.103 nM
- EC50 [7]: 0.148 nM
- EC50 ([8]; IFNγ secretion, PD-1 transduced KG-1): 0.135 nM
- PD-1^neg/PD-1^pos EC50 ratio ([8]; KG-1 cells): 1.2
- Kd [9]: 0.103 nM
- IC50 (NK92 cells [10]): 0.282 nM
